Kd data for one substance are collected here from paper PMC8064889.

In the assay the target is SARS-CoV-2 RBD, His6-tagged, for biolayer interferometry (SARS-CoV-2) (UniProt P0DTC2). Nature of the assay: BLI. In general terms: Biolayer interferometry detects binding as a change in optical thickness at a sensor tip.

For CR3022 Fab, the Kd (in general, the constant that tells how readily two partners part at equilibrium) was found to be 46.3 nM. In other words, the double-digit nanomolar range.
